# Target: RTX751 (Bordetella pertussis adenylate cyclase toxin, ACT, residues 751-1,706) (Bordetella pertussis, UniProt P0DKX7)
# Assay: […], room temperature 20 min; […]; 20 mM Tris pH 7.5, 150 mM NaCl, 1 mM CaCl2, 1 mM MgCl2; […]
# Settings: both partners purified
binder,measurement,value
"M1F5 Fab (anti-ACT RTX domain antibody M1F5) (Fab, V domains shown, also called M1F5 antibody; M1F5 IgG) VH: QVQLKQSGPELVKPGASVRMSCKGSGYSFTFHNIHWVKQRPGQGLEWIGWIYPGDGNTKYNEKFKGKTTLTVDKSSNTAYMLLSSLTSEDSAIYFCAYGNYYFDQWGQGTTLTVSS VL: IQMMQSTSSLSASLGDRVTISCSASQGITNYLNWYQQKPDGTVKLLIYYTSSLHSGVPSRFSGSGSGTDYSLTISNLEPEDIATYYCQQYSNLPWTFGGGTKLEIK",stoichiometry N,1

# — PMC9416875, “Structural basis for non-canonical integrin engagement by Bordetella adenylate cyclase toxin” (Cell reports, 2022)
